From patent US20050069541A1, “Composition for and treatment of demyelinating diseases and paralysis by administration of remyelinating agents” (priority 2003, published 2005)
One block for each molecule: values may come before it.

Experiments:
[1] = system: spinal cord lesions of paralyzed EAE guinea pigs; experiment: Example 2: spontaneous remyelination in chronic EAE (SCR, toluidine blue, EM, lesion area analysis, motor function); format: in vivo, guinea pig
[2] = system: EAE in female Hartley guinea pigs; conditions: listed as N-[N-(3-pyridinesulfonyl)-L-3,3-dimethyl-4-thiaprolyl]-O-[1-methylpiperzain-4-yl
[3] = system: brain and spinal cord of EAE guinea pigs; experiment: Chronic EAE: histology and blinded pathological scoring of brain and spinal cord sections (H-E, SCR); format: in vivo, guinea pig; conditions: versus saline; listed as N-[N-(3-pyridinesulfonyl)-L-3,3-dimethyl-4-thiaprolyl]-O-[1-methylpiperzain-4-yl
Description: Animal Sacrifice and Histological Analysis. Untreated, chronic EAE animals (n=5) were sacrificed on day 40, as well as non-EAE controls (n=5). Following each 10-day treatment interval, 5 animals from each group were sacrificed (0.25 mL sodium pentobarbital), blood samples were collected for FACS analysis (see below), and the brain and spinal cord dissected and sectioned. Three spinal sections were used, corresponding to lumbar, thoracic and cervical regions of the cord. The brain was cut into five transverse sections. The first three proximal sections were combined in one block, and the last two distal sections in another. Tissues were fixed in 10% formalin and embedded in paraffin. […] sections were stained with hematoxylin-eosin (H-E) or solochrome-R-cyanlin (SCR) and evaluated by a blinded observer in each of four categories: (1) meningeal inflammation, (2) perivascular infiltration, (3) encephalitis or (4) myelitis and demyelination (Table 6). The combined pathological score represents the total score (out of a potential 20) from all 5 CNS sections in each animal.

[4] = system: infiltrating cells in spinal cord; experiment: Chronic EAE: mean cell counts in spinal cord (H-E sections, 0.12 mm^2 fields); format: in vivo, guinea pig; conditions: listed as N-[N-(3-pyridinesulfonyl)-L-3,3-dimethyl-4-thiaprolyl]-O-[1-methylpiperzain-4-yl
Description: To quantify the abnormalities observed in the spinal cord, sections stained with H-E were divided into 12 representative pie-shaped areas. In each area, the number of cells within a 0.12 mm^2 field of view was counted using Sigma Scan Pro image analysis software (SPSS Inc.), and the combined mean number of cells in all 12 areas was calculated for the whole spinal cord (36 fields of view per animal). Note that as all cell nuclei were counted, the number of cells may include neurons and glial cells in addition to infiltrates.

α4 integrin = α4 integrin (Homo sapiens, UniProt P05556+P13612); experiment: Inhibition of cell adhesion to VCAM; format: cell-based, human and guinea pig; conditions: 100% serum; read-out: IC50 for inhibition of cell adhesion to high density VCAM-1 in the presence of 100% serum
IL-2, IL-10, MCP-1 RNA = experiment: Chronic EAE: quantitative RT-PCR of spinal cord; format: in vivo, guinea pig; conditions: 10 days after withdrawal; listed as N-[N-(3-pyridinesulfonyl)-L-3,3-dimethyl-4-thiaprolyl]-O-[1-methylpiperzain-4-yl
Description: Quantitative Reverse Transcription-PCR: IL-2, IL-10, MCP-1. RNA was isolated from 30 mg of frozen guinea pig spinal cord using the S.N.A.P.™ (simple nucleic acid preparation) total RNA Isolation Kit (Invitrogen) according to manufacturer's instructions, modified to include a second DNAse treatment step followed by an additional purification over the S.N.A.P. column.
Primer/probe sequences and concentrations for IL-2, IL-10, and MCP-1 are given in Table 7, as well as the standard RNA used for each gene. RT-PCR was carried out in triplicate using the ABI PRISM® 7700 Sequence Detection System. 50 μl reactions contained 10 to 800 ng of total RNA and primers and probes at the concentrations indicated above in reaction buffer consisting of 6.67% glycerol (Amresco); 5.5 mM MgCl; 300 μM DATP, dCTP, dGTP, and dUTP; 100 nM probe; 1.25 unit of AmpliTaq Gold® DNA Polymerase (Applied Biosystems); 1× TaqMan® Buffer A (TaqMan® PCR Core reagents kit, Applied Biosystems), 20 units of RNase Inhibitor (Roche); 1.25 unit of murine leukemia virus (MuLV) Reverse Transcriptase (Applied Biosystems). Reverse-transcription of RNA was carried out at 48° C. for 30 min., followed by a 10 min. denaturing step at 95° C. PCR was carried out by 40 thermo-cycles consisting of 95° C. for 15 seconds followed by 60° C. for 1 minute. Each plate included a standard curve using the standard RNA listed in Table 7 and two additional control samples: 1) a positive control RNA sample used on all plates, 2) a non-template control (NTC).
The correlation coefficients of the standard curves were greater than 0.990 for all data shown. The coefficients of variation for sample triplicates were less than 0.2. Since the RNA used for the standard curve is a heterogeneous mix of RNA containing a constant but unknown amount of the target message, the numbers calculated are relative.

[5] = molecular target: β1 integrin (human) (human) (UniProt P05556)
[6] = molecular target: β1 integrin (human) (human) (UniProt P05556); remark: listed apart in the source
[7] = molecular target: α6 integrin (human) (human) (UniProt P23229)
[8] = molecular target: α4 integrin (human) (human) (UniProt P13612)
[9] = molecular target: α4 integrin (human) (human) (UniProt P13612); remark: listed apart in the source
[10] = molecular target: α4 integrin (human) (human) (UniProt P13612); remark: listed apart in the source
[11] = molecular target: α4 integrin (human) (human) (UniProt P13612); remark: listed apart in the source
[12] = molecular target: α4 integrin (human) (human) (UniProt P13612); remark: listed apart in the source
Mac-1 (human) (human) = Mac-1 (human) (human) (UniProt P11215)
[13] = molecular target: L-selectin (mouse) (mouse) (UniProt P18337)
CD45 (rat) (rat) = CD45 (rat) (rat) (UniProt P04157)
Thy 1.1 (rat) (rat) = Thy 1.1 (rat) (rat) (UniProt P01830)
CD2 (rat) (rat) = CD2 (rat) (rat) (UniProt P08921)
CD4 (rat) (rat) = CD4 (rat) (rat) (UniProt P05540)
[14] = molecular target: monocyte/T cell surface antigen (rat) (rat)
[15] = molecular target: α4 integrin (mouse) (mouse) (UniProt Q00651)
[16] = molecular target: β2 integrin (human) (human) (UniProt P05107)
VLA-4 = molecular target: T1, VLA-4 (Homo sapiens, UniProt P05556+P13612); conditions: cited from earlier work
T1 construct: endogenous in cells; host or cells: Jurkat cells

[17] = molecular target: α4 integrin (human) (human) (UniProt P13612); remark: listed apart in the source
human lymphocytes = conditions: cited from earlier work

- Relative Binding to EAE Vessels (% of control) [5]: 8 % of control
- Relative Binding to EAE Vessels (% of Control), human lymphocytes [6]: 7 % of Control
Molecule: AIIB2 (antibody)

- Relative Binding to EAE Vessels (% of control) [7]: 88 % of control
Molecule: GoH3 (antibody)

- Relative Binding to EAE Vessels (% of control) (Mac-1 (human) (human)): 107 % of control
Molecule: LM2/1 (antibody)

- Relative Binding to EAE Vessels (% of Control), mouse lymphocytes [13]: 92 % of Control
Molecule: MEL-14 (antibody)

- Relative Binding to EAE Vessels (% of Control), rat lymphocytes (CD45 (rat) (rat)): 90 % of Control
Molecule: OX-1 (antibody)

- Relative Binding to EAE Vessels (% of Control), rat lymphocytes (Thy 1.1 (rat) (rat)): 87 % of Control
Molecule: OX-7 (antibody)

- Relative Binding to EAE Vessels (% of Control), rat lymphocytes (CD4 (rat) (rat)): 107 % of Control
Molecule: OX-35 (antibody)

- Relative Binding to EAE Vessels (% of Control), rat lymphocytes (LFA-1 (rat) (rat)): 87 % of Control
Molecule: OX-52 (antibody)

Continued, molecule first:

Molecule: Cc1ccc(S(=O)(=O)N2CCC[C@H]2C(=O)N[C@@H](Cc2ccc(OC(=O)N3CCN(CCO)CC3)cc2)C(=O)OC(C)(C)C)cc1
- melting point: 158 to 160 °C

Molecule: CC(C)OC(=O)[C@H](Cc1ccc(OC(=O)N2CCN(C)CC2)cc1)NC(=O)[C@H]1N(S(=O)(=O)c2cccnc2)CSC1(C)C [Example 381, N-[N-(3-pyridinesulfonyl)-L-3,3-dimethyl-4-thiaprolyl]-O-[1-methylpiperazin-4-ylcarbonyl]-L-tyrosine isopropyl ester]
- SCR-stained spinal cord lesions after 20 days of treatment ([1]; 20 days, listed as N-[N-(3-pyridinesulfonyl)-L-3,3-dimethyl-4-thiaprolyl]-O-[1-methylpiperzain-4-yl): lesions with a diffuse blue stain covering the plaque
- SCR-stained spinal cord lesions after 40 days of treatment ([1]; 40 days, listed as N-[N-(3-pyridinesulfonyl)-L-3,3-dimethyl-4-thiaprolyl]-O-[1-methylpiperzain-4-yl): majority of lesions showed clear myelin pallor
- percentage of remyelination (mean percent of lesion area with myelin pallor) ([1]; after 20, 30 or 40 days of therapy): 50%
- semithin and EM sections of lesions ([1]; day 30 of treatment, listed as N-[N-(3-pyridinesulfonyl)-L-3,3-dimethyl-4-thiaprolyl]-O-[1-methylpiperzain-4-yl): multiple layers of thin myelin wrappings around large diameter axons indicative of remyelination
- incidence of remyelination (lesions with myelin pallor) versus saline ([1]; time-dependent): increased the incidence of remyelination
- mean clinical score day 70-80 after withdrawal (30 days treatment, 10 days off) versus continuous treatment ([2]; n=5, p<0.05 Mann Whitney): significantly higher
- escape from treatment ([2]; up to 40 days of treatment): no escape from treatment
- adverse side effects during prolonged administration ([2]; up to 40 days, 30 mg/kg 2x/day s.c., guinea pig, 30 mg/kg): no adverse side effects
- spinal cord histology after 20 days of treatment (day 60) [3]: much smaller area of demyelination
- spinal cord histology after 40 days of treatment (day 80) [3]: almost no meningeal and perivascular inflammation
- cell number in spinal cord versus saline-treated animals ([4]; after 10, 20, 30 or 40 days, p<0.001 two-way ANOVA): fewer cells
- mean cell count after removal of compound for 10 days versus continuous treatment ([4]; p<0.05): significantly increased
- IC50 (α4 integrin): 1 to 10 nM
- cytokine RNA after withdrawal of compound (IL-2, IL-10, MCP-1 RNA): rose to levels comparable to those in saline-treated animals

Molecule: HP1/7 (antibody)
- Relative Binding to EAE Vessels (% of control) [8]: 338 % of control

Molecule: HP2/1 (antibody)
- Relative Binding to EAE Vessels (% of control) [8]: 3 % of control
- Jurkat binding to FN-coated plate (% inhibition) [9]: 47 % inhibition
- Relative Binding to EAE Vessels (% of Control), human lymphocytes [10]: 0 % of Control
- Relative Binding to EAE Vessels (% of Control), rat lymphocytes (α4 integrin (rat) (rat)): 18 % of Control
- % Input Binding Ramos to VCAM-1 transfected L cells [11]: 0 % input
- % Input Binding Jurkat to TNFα-stimulated rat brain EC clone [12]: 6 % input

Molecule: OX-34 (antibody)
- Relative Binding to EAE Vessels (% of Control), rat lymphocytes (CD2 (rat) (rat)): 100 % of Control

Molecule: OX-44 (antibody)
- Relative Binding to EAE Vessels (% of Control), rat lymphocytes [14]: 102 % of Control

Molecule: P4G9 (antibody)
- Relative Binding to EAE Vessels (% of control) [8]: 151 % of control

Molecule: R1-2 (antibody)
- Relative Binding to EAE Vessels (% of Control), mouse lymphocytes [15]: 43 % of Control

Molecule: TS1/18 (antibody)
- Relative Binding to EAE Vessels (% of control) [16]: 98 % of control

B1: TY21.6 (antibody, V domains shown)
VH: EVQLQQSGAELVKPGASVKLSCTASGFNIKDTYIHCVKQRPEQGLEWIGRIDPANGYTKYDPKFQGKATITADTSSNTAYLQLSSLTSEDTAVYFCAREGYYGNYGVYAMDYWGQGTSVTVSS
VL: DIQMTQSPSSLSASLGGKVTITCKTSQDINKYMAWYQHKPGKRPRLLIHYTSALQPGIPSRFSGSGSGRDYSFNISNLEPEDIATYYCLQYDNLWTFGGGTKLEIK
- Jurkat binding to FN-coated plate (% inhibition) [9]: 45 % inhibition
- binding affinity for VLA-4 (VLA-4): about 10^9 M^−1
- % Input Binding Ramos to VCAM-1 transfected L cells [11]: 1 % input
- % Input Binding Jurkat to TNFα-stimulated rat brain EC clone [12]: 8 % input
- Binding of U937 cells to inflamed vessels in sections of EAE brain [17]: 0
- human lymphocyte binding to TNF-stimulated rat brain cell cultures (human lymphocytes): inhibit human lymphocyte binding
